Positions count from the first letter of the chain named. In names and notes the source's numbering stands.
B1: D417C/A404L ClC-ec1 (cysteine-less background) (natural protein, E. coli)
chain: MKTDTPSLETPQAARLRRRQLIRQLLERDKTPLAILFMAAVVGTLVGLAAVAFDKGVAWLQNQRMGALVHTADNYPLLLTVAFLASAVLAMFGYFLVRKYAPEAGGSGIPEIEGALEDQRPVRWWRVLPVKFFGGLGTLGGGMVLGREGPTVQIGGNIGRMVLDIFRLKGDEARHTLLATGAAAGLAAAFNAPLAGILFIIEEMRPQFRYTLISIKAVFIGVIMSTIMYRIFNHEVALIDVGKLSDAPLNTLWLYLILGIIFGIFGPIFNKWVLGMQDLLHRVHGGNITKWVLMGGAIGGLAGLLGFVAPATSGGGFNLIPIATAGNFSMGMLVFIFVARVITTLLSFSSGAPGGIFAPMLALGTVLGTAFGMVAVELFPQYHLEAGTFAIAGMGALLAASIRLPLTGIILVLEMTCNYQLILPMIITGLGATLLAQFTGGKPLYSAILARTLAKQEAEQLARSK
notes: ClC-ec1; D417C with A404L in the cysteine-less background C85A/C302A/C347S; source: expressed and purified as in Accardi and Miller, 2004, final step Superdex 200 size exclusion
B2: Y419C ClC-ec1 (WT ClC-ec1 background) (natural protein, E. coli)
chain: B1 chain with A85C, A302C, S347C, L404A, C417D, Y419C
notes: ClC-ec1, prokaryotic CLC Cl-/H+ exchange transporter, homodimer; Y419C in the WT (native cysteines kept) background; source: expressed and purified as in Accardi and Miller, 2004, final step Superdex 200 size exclusion
B3: D417C/L361A ClC-ec1 (cysteine-less background) (natural protein, E. coli)
chain: B1 chain with L361A, L404A
notes: ClC-ec1; D417C with the Helix-N mutation L361A in the cysteine-less background C85A/C302A/C347S; also called L361A (Helix N); source: expressed and purified as in Accardi and Miller, 2004, final step Superdex 200 size exclusion
B4: D417C/F357A ClC-ec1 (cysteine-less background) (natural protein, E. coli)
chain: B1 chain with F357A, L404A
notes: ClC-ec1; D417C with the Helix-N mutation F357A in the cysteine-less background C85A/C302A/C347S; also called F357A (Helix N); source: expressed and purified as in Accardi and Miller, 2004, final step Superdex 200 size exclusion
B5: D417C/E148A ClC-ec1 (cysteine-less background) (natural protein, E. coli)
chain: B1 chain with E148A, L404A
notes: ClC-ec1; D417C with E148A in the cysteine-less background C85A/C302A/C347S; also called D417C in the E148A mutant background; source: expressed and purified as in Accardi and Miller, 2004, final step Superdex 200 size exclusion
B6: D417C ClC-ec1 (cysteine-less C85A/C302A/C347S background, called the "WT background") (natural protein, E. coli)
chain: B1 chain with L404A
notes: ClC-ec1, prokaryotic CLC Cl-/H+ exchange transporter, homodimer; D417C in the cysteine-less background C85A/C302A/C347S; E. coli is named only in the keywords; also called D417C/WT; source: expressed and purified as in Accardi and Miller, 2004, final step Superdex 200 size exclusion

Biological target: the molecule itself
Assay: cross-linking; inter-subunit disulfide between introduced cysteines, spontaneous (purified without reductant) or induced with copper-phenanthroline (CuP) for 1 h at room temperature, 0.2 mg/mL protein in Buffer A (150 mM NaCl, 10 mM HEPES pH 7.5, 5 mM DM); non-reducing SDS-PAGE, Coomassie, monomer and dimer bands quantified
B1: binds. B2: binds. B3: binds. B4: binds. B5: binds.

Biological target: the molecule itself
Assay: SEC; Superdex 200 gel filtration, before and after treatment with CuP
In the case of B6, the “stoichiometry N” value is reported as 2.

— PMC4769167 (eLife, 2016)
